# Literature values, collected in patent publication US20130079279A1, “PHARMACEUTICAL COMPOSITION COMPRISING AVE0010 AND INSULIN GLARGINE” (SANOFI-AVENTIS DEUTSCHLAND GMBH, priority 2010, published 2013).
# Test system: anti-lixisenatide antibodies
# Conditions: previous study ACT6011; end of a two week period after repeated injections
substance,measurement,value
desPro^36Exendin-4(1-39)-Lys6-NH2 [lixisenatide],Anti-lixisenatide antibodies,not detected
